Here are results for one molecule from US20220306759A1 (CYTOMX THERAPEUTICS, published 2022).

Assay [1] addresses T1, human CD71 (transferrin receptor protein 1, TfR1) on human cell lines (human, UniProt P02786 1-760).
T1 construct: whole, on cells; also called huCD71
The assay is described as follows: FACS on H292 cells. The protocol:
In this study, the binding of the antibodies of the present disclosure to the indicated cell lines were performed using a standard FACS labelling method. […] These activatable antibodies include the light chain of the correspondingly named sequence listed above in Table C. The cells were labeled with the indicated test article at the indicated concentrations and subsequently detected with an Alexa Fluor 647 labeled goat anti-human IgG secondary antibody.

Assay [2] addresses T2, cynomolgus monkey CD71 on primary kidney epithelial cells (cynomolgus monkey, UniProt H9EXL1 1-760 (rhesus entry)).
T2 construct: whole, on cells; also called cyno CD71
Nature of the assay: FACS on cynomolgus monkey primary kidney epithelial cells. Here is the method: In this study, the binding of the antibody of the present disclosure to the cells were performed using a standard FACS labelling method.

Assay [3] concerns the target T3, recombinant human CD71 protein (human, UniProt P02786 89-760).
T3 construct: also called recombinant CD71
Nature of the assay: ELISA, 1 µg/mL CD71 on copper or nickel plates. The protocol:
(§1) The amount of bound antibody was detected by incubation and detection by goat anti-human antibody conjugated to horseradish peroxidase and Ultra TMB (Thermo Fisher Scientific) detection.
A general note: In an ELISA, binding on a coated surface is turned into a signal by an enzyme label.

Assay [4] has as its target T1, human CD71 (transferrin receptor …). The assay is described as follows: FACS on HT29 cells. The protocol: (§2) In this study, the binding of the antibodies of the present disclosure to the indicated cell lines were performed using a standard FACS labelling method.
Assay [5] has the same target. The assay is described as follows: FACS on H292 cells. The protocol:
as §2
This is another data set of the same source.

For assay [6] the target is unchanged. Nature of the assay: FACS on MDA MB 231 cells. Here is the method:
as §2

For assay [7] the target is unchanged. The assay is described as follows: FACS on DMS 79 cells. Here is the method: (§3) In this study, the binding of the antibodies and ADCs of the present disclosure to the indicated cell lines were performed using a standard FACS labelling method.
A further assay has as its target recombinant mouse CD71 (mouse, UniProt Q62351 89-763, limits assumed). The assay is described as follows: ELISA, recombinant CD71 (1 µg/mL) on plates, anti-human IgG-HRP.
Assay [8] addresses T1, human CD71 (transferrin receptor …). Nature of the assay: FACS on BxPC3 cells.
The target of assay [9] is T3, recombinant human CD71 protein. Nature of the assay: ELISA, 1 µg/mL CD71 on nickel plates.
Assay [10] has as its target T1, human CD71 (transferrin receptor …). Nature of the assay: FACS on HCC1806 cells. Here is the method:
as §2

Assay [11] deals with T3, recombinant human CD71 protein. Nature of the assay: ELISA, 1 µg/mL recombinant human CD71 (second value). The protocol:
as §1

The target of assay [12] is T1, human CD71 (transferrin receptor …). Nature of the assay: FACS on DMS 153 cells. Here is the method: as §3
The target in assay [13] is T3, recombinant human CD71 protein. Nature of the assay: ELISA, 1 µg/mL recombinant human CD71. Here is the method:
as §1

The target of assay [14] is T1, human CD71 (transferrin receptor …). Nature of the assay: FACS on MDA MB 231 cells. Here is the method: as §2
This is another data set of the same source.

For assay [15] the target is unchanged. Nature of the assay: FACS on FaDu cells. The protocol: as §2
For assay [16] the target is unchanged. The assay is described as follows: FACS on BxPC3 cells. The protocol: as §2
The source holds these as a separate data set.

T3 sequence (P02786 89-760 limits assumed): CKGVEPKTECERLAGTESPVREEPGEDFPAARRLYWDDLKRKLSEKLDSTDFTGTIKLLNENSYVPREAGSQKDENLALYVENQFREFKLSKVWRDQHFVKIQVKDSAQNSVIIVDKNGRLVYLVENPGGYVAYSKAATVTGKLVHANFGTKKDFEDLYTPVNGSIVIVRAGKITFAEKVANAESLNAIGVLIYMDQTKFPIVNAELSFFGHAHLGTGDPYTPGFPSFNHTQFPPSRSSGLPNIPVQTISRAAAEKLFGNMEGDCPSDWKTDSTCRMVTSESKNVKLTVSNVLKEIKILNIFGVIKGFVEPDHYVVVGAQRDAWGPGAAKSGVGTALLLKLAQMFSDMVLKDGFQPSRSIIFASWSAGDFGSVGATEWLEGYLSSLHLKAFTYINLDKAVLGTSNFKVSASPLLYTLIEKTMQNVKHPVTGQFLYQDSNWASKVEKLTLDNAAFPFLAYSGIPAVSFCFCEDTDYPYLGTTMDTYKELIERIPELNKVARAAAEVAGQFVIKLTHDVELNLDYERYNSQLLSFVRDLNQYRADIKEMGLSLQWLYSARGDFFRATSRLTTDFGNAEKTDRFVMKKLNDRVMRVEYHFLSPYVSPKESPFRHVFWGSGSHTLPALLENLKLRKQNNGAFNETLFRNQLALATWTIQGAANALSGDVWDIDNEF
T1 sequence (P02786 whole entry): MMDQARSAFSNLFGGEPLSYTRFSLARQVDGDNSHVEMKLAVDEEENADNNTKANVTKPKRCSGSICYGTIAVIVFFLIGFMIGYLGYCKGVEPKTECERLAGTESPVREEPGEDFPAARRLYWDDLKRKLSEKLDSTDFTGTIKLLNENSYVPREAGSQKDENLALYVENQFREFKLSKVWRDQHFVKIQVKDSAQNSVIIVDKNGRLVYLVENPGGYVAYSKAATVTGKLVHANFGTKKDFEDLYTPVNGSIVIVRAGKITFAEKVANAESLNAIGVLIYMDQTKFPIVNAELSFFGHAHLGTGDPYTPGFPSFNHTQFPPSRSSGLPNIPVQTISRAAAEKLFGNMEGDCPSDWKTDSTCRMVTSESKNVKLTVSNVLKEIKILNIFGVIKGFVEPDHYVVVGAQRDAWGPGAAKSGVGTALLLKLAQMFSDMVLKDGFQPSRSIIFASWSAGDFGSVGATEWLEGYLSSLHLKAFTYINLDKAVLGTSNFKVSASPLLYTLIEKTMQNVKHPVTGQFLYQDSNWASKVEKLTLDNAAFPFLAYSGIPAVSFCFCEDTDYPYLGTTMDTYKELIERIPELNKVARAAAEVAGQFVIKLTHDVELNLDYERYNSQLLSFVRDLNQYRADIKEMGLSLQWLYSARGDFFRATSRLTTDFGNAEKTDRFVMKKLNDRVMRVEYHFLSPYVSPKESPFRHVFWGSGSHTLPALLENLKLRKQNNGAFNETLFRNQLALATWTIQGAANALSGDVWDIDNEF
T2 sequence (chain, as listed by the source): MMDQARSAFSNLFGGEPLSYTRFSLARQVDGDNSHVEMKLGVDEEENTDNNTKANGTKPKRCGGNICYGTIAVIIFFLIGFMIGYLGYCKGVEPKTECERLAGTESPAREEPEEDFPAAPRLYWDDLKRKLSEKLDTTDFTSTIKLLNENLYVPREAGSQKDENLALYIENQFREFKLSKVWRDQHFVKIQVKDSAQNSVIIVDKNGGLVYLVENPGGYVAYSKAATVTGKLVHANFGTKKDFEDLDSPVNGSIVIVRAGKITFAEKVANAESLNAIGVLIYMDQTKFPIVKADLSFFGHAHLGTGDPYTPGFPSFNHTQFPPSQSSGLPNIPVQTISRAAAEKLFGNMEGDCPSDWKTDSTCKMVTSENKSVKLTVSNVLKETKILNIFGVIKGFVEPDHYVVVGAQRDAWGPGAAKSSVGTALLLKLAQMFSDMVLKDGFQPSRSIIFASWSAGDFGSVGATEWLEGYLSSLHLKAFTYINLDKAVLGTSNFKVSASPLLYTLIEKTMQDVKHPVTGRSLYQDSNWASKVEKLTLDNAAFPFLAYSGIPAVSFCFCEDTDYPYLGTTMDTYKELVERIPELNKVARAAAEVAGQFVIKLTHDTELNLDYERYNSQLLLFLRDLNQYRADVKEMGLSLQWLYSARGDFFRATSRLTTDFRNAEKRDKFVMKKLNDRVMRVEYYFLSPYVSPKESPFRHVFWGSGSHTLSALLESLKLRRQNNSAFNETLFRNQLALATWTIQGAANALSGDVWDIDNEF
Chain of recombinant mouse CD71 (Q62351 89-763 limits assumed): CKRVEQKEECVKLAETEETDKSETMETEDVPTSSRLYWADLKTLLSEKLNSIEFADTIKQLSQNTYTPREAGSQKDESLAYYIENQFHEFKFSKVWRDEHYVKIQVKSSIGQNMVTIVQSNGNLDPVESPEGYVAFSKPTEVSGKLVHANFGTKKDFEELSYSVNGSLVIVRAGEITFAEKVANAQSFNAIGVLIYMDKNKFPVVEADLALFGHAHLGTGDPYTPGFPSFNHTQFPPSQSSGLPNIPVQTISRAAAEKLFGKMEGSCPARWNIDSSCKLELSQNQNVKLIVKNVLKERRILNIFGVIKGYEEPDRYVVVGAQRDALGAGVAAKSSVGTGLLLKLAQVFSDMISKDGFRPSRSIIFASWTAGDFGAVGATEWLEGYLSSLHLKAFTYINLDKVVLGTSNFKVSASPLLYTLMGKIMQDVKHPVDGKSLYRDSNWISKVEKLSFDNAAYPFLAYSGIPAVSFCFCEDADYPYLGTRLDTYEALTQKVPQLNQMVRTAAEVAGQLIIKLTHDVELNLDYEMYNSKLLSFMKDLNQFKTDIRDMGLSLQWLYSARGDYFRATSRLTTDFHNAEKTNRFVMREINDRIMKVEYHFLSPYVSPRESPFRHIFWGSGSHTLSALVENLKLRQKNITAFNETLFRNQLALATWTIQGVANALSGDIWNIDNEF

B1: Ab21.12 LcB:HcC (antibody, human IgG1, kappa)
heavy: not shown
light: DIQMTQSPSSLSASVGDRVTITCSASSSVYYMYWFQQKPGKAPKLWIYSTSNLASGVPSRFSGSGSGTDYTLTISSMQPEDFATYYCQQRRNYPYTFGQGTKLEIKRTVAAPSVFIFPPSDEQLKSGTASVVCLLNNFYPREAKVQWKVDNALQSGNSQESVTEQDSKDSTYSLSSTLTLSKADYEKHKVYACEVTHQGLSSPVTKSFNRGEC
In general, Kd refers to a measure of binding affinity in units of concentration. Regarding B1, the Kd in assay [1] was 0.441 nM; in assay [2], roughly 3 nM; in assay [3] it was 0.14 nM; in [4], 0.51 nM; in assay [5], 1.53 nM; in [6] it was 0.84 nM. For the same molecule, the Kd in [7] is 0.898 nM; in assay [8], roughly 3 nM; in assay [9], 0.3 nM; in assay [10], 5 nM; in assay [11], 0.162 nM; in assay [12] it was 4.47 nM. Further, the Kd in assay [13] came out at 0.255 nM; in assay [14], 1.03 nM; in [15], 0.39 nM; in assay [16] it was 0.81 nM. Moreover, the “Bmax (MFI)” value in assay [5] amounted to 1820 MFI. In addition, in the assay with recombinant mouse CD71, the binding result is reported as “no binding”.
